Values of other authors in publication PMC5466068.

Target: Cys32 (UniProt position 32, FSATWCGPCKM)
Test: NMR
Details: not stated (a free thiol at the catalytic Cys implies the reduced form)

Thioredoxin-1 (Thrx-1) (Homo sapiens)
pKa: ~6.3
